Results: patent publication US20250051455A1 (Hoffmann-La Roche, published 2025)

Molecular target: T1, recombinant soluble human HLA-G β2M MHC class I complex, monomer (human)
T1 construct: His tagged; biotinylated where coated on streptavidin plates, non-biotinylated in SPR; also called HLA-G-0003; wt HLA-G (monomer)
Assay: SPR Biacore T200, antibody captured via anti-Fc, HLA-G monomer as analyte, 25 C
Protocol: Binding kinetics of anti-HLA-G antibodies to human HLA-G, human HLA-G degrafted and human HLA-A2 were investigated by surface plasmon resonance using a BIACORE T200 instrument (GE Healthcare). All experiments were performed at 25° C. using PBS Buffer (pH 7.4+0.05% Tween20) as running buffer and PBS Buffer (+0.1% BSA) as dilution buffer. Anti-human Fc (JIR009-005-098, Jackson) or anti-rat Fc (JIR112-005-071, Jackson) or anti-Mouse Fc (JIR115-005-071, Jackson) antibodies were immobilized on a Series S CM5 Sensor Chip (GE Healthcare) at pH 5.0 by using an amine coupling kit supplied by GE Healthcare. Anti-HLA-G antibodies were captured on the surface leading to a capturing response of 50-200 RU. HLA-G molecules were injected for 180 s at 30 μl/min with concentrations from 2.5 up to 800 nM (2×1:2 and 4×1:3 dilution series) onto the surface (association phase). The dissociation phase was monitored for 300-600 sec by washing with running buffer. The surface was regenerated by injecting H3PO4 (0,85%) for 60+30 seconds for anti-human Fc capturing antibodies, glycine pH1,5 for 60 seconds and glycine pH2,0 for 60 seconds for anti-rat Fc capturing antibodies, H3PO4 (0,85%) for 80+60 seconds for anti-mouse Fc capturing antibodies. Bulk refractive index differences were corrected by subtracting the response obtained from a mock surface. Blank injections were subtracted (double referencing). The derived curves were fitted to a 1:1 Langmuir binding model using the BIAevaluation software.
The above table summarizes the antibody affinities and t½ values against wt and degrafted HLA-G as assessed by Surface plasmon resonance (Biacore) analysis. Binding kinetics of anti-HLA-G antibodies to human HLA-G and human HLA-G degrafted were investigated by surface plasmon resonance using a BIACORE T200 instrument (GE Healthcare). All experiments were performed at 25° C. using PBS Buffer (pH 7.4+0.05% Tween20) as running buffer and PBS Buffer (+0.1% BSA) as dilution buffer. Anti-human Fc (JIR009-005-098, Jackson) or anti-rat Fc (JIR112-005-071, Jackson) or anti-Mouse Fc (JIR115-005-071, Jackson) antibodies were immobilized on a Series S CM5 Sensor Chip (GE Healthcare) at pH 5.0 by using an amine coupling kit supplied by GE Healthcare.

B1: HLA-G-0031-0104 (humanized variant of HLA-G-0031) (antibody, V domains shown)
VH: QVQLVQSGAEVKKPGASVKVSCKASGYTFTDYWVSWVRQAPGQRLEWMGEISPNSGASNFDENFQGRVTITRDTSASTAYMELSSLRSEDTAVYYCTRSSHGSFRWFAYWGQGTLVTVSS
VL: DIQMTQSPSSLSASVGDRVTITCRASSSVSSNHLHWYQQKPGKAPKFLIYSTSQRASGVPSRFSGSGSGTEFTLTISSLQPEDFATYYCQQGSSNPYTFGQGTKLEIK
notes: Humanized variant (VH framework IGHV1-3, VL framework IGKV1-17 with back-mutation R46F, Kabat)
Kd: 24 nM
koff: 0.002 s⁻¹
kon: 83000 M⁻¹ s⁻¹
t 1/2: 6 min
